Assay [1] concerns the target ABM126. Kind of assay: binding affinity.
For assay [2], the target named is ABM126.4. As to the kind of experiment: binding affinity.
Assay [3] has as its target ABM109.2. As to the kind of experiment: binding affinity.
The target in assay [4] is hABM125.9. Kind of assay: SPR. On the technique in general: In SPR one partner is held on a chip, and binding of the other changes the refractive index at the surface.
In assay [5] the target is hABM125.10. As to the kind of experiment: SPR.
Assay [6] addresses ABM 109. Kind of assay: SPR.
For assay [7], the target named is ABM 109.2. Kind of assay: SPR.
Assay [8] has as its target Mouse (NSO). Kind of assay: binding affinity.
For assay [9], the target named is Cyno Monkey (HEK). Kind of assay: binding affinity.
Assay [10] concerns the target T1, recombinant human IL-25 (R&D Systems) (human, UniProt Q9H293 33-177).
T1 chain: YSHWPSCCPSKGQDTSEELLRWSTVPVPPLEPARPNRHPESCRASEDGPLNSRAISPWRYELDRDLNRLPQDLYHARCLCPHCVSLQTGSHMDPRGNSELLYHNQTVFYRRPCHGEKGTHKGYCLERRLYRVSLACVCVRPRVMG
As to the kind of experiment: binding affinity.

Assay [11] addresses mouse IL-25 (NS0). As to the kind of experiment: SPR.
For assay [12], the target named is T1, recombinant human IL-25 (R&D Systems). As to the kind of experiment: SPR.

B1: Human (HEK) (ligand)
chain: T1 chain
With B1, the equilibrium dissociation constant (Kd) in assay [1] came to 0.043 nM; in assay [2], 0.024 nM; in assay [3], 1 nM.

B2: human IL-25 (HEK) (ligand)
chain: T1 chain
In the case of B2, the values for the dissociation constant Kd in assay [4] and in assay [5] were 0.061 nM and 0.374 nM, respectively.

B3: human IL-25 (ligand)
chain: T1 chain
In the case of B3, the Kd in assay [6] was 0.004 nM; in assay [7], 0.024 nM.

B4: ABM125.38 (antibody, V domains shown)
VH: QVTLKESGPTLVKPTQTLTLTCTFSGFSLSTSGMGVGWIRQPPGKALEWLAHIWWDDVKRYNPSLKSRLTITKDTSGSQVVLTMTNMDPVDTATYYCARTLPHFHDYWGQGTTLTVSS
VL: DIQMTQSPSTLSASVGDRVTITCRASSSVSYMYWYQQKPGKAPKPLIYRTSNLASGVPSRFSGSGSGTEYTLTISSLQPDDFATYYCKQYHSYPPTWTFGGGTKVEIKR
As to B4, the dissociation constant (Kd) in [8] was 0.096 nM; in [9], 0.235 nM.

B5: LNR125.38 (antibody, V domains shown)
VH: B4 VH
VL: B4 VL
For the molecule B5, the dissociation constant Kd in assay [10] came out at 0.051 nM.

B6: ABM125 (antibody, V domains shown)
VH: QVTLKVSGPGILQPSQTLSLTCSFSGFSLNTSGMGVGWIRQPSGKGLEWLAHIWWDDVKRYNPALKSRLTISKDTSGSQVFLKIASVDTADTATYYCARTLPHFFDYWGQGTTLTVSS
VL: DIQMTQSPAIMSASPGEKVTISCRASSSVSYMYWYQQKSGSSPKPWIYRTSNLASGVPARFSGSGSGTSYSLTISSMEAEDAATYYCKQYHSYPPTWTFGGGTKLEIKR
modifications: N-glycosylation site in heavy chain CDR1 created by S29N, confirmed biophysically
With B6, the dissociation constant Kd in assay [11] was found to be 0.0073 nM; in [8] it was 0.168 nM; in [9] it was 0.17 nM.

B7: ABM125 (Chimera) (antibody, V domains shown)
VH: B6 VH
VL: B6 VL
modifications: N-glycosylation site in heavy chain CDR1 created by S29N, confirmed biophysically
On to B7, for which the values for the Kd in [12] and in [10] were 0.0053 nM and 0.128 nM, respectively.

A word on the Kd: it is the concentration at which binding is half-saturated.

The record behind these values is patent US20240400671A1 (published 2024).
